# Laboratory results reported in the DeepSol protein solubility set.
# Test: soluble on expression in E. coli; label from the status in PepcDB or PDB records
row,Sequence,soluble on expression in E. coli
1,MGSDKIHHHHHHMQANKNIQKLTPYLSIPHKIWNSSQSNILKLDWNEATIPPSPYVIESIKKFLVNGNLNWYPNTKNLYLLDKIAEYTKQINSSFVELFEGSDSAHECIIDVFLDKCDKIGIVSPTYDNFRSRANGVGIETISFTLDDNFNLDFDSLEYFIHEKRIKLLYLCNPNNPTGKSYNIQKIKSLIINNPNVMFIIDEAYYEFTSQSVCDLVEQCNNLIITRTFSKAFALASFRIGYIISHPENIESINKLRNPKSVPMLSQIAANAALEDLQYMRDYVDEVSCARMEFVKFLNTLTTGGGGIFNDSVANFVLIQNENISLFVGFLEKEGIFIRNYSHLISKNCRISIGTRNQMSYVAEKIQEFAKKQGGFHLV,not soluble
2,MGSDKIHHHHHHMQATMTDKNTRELLLDAATTLFAEQGIAATTMAEIAASVGVNPAMIHYYFKTRDSLLDTIIEERIGRIIDMIWEPVTGEEDDPLIMVRDLVNRIVNTCETMLWLPSLWIREIVNEGGALREKMLNNIPIDKMNKFSAKIAEGQKQGVINSGIDSRLLIGSIIGLTMLPLATAKLRDQIPTMKGLSSEDIVCHVTALLFTGLTNPSNSDDIKKQRT,not soluble
3,MGSDKIHHHHHHMQEKKTLTFVVPAYNMTEYLERCVESLIASKRNDDIEVLIVDDGSSDGTLEMAKTFEARNPGIVRAIHQENKGHGGAVNTGIAAASGMYVKVVDADDWVGPESLEQVLAVLRDEVGKDDPLDMLVTNYVYDKVGKRNKHVVNFRHAMEPGKRLTWDDLGHFGLTEYILMHALVYRTAVVRESKMQLPEHTFYVDFIYAYQPFPWVKSLQYLDTPFYHYFIGRDGQSVQTDVMIRRVDQLRLVNQCMVHATPERGTVPDGLYRYMIHFLAIESSVASVFMILSREPENYEKKKAMWADIEAYSPTIYKDVRKKAMSRALNLRGSAGRFVIRKGYFLAEHVVGFN,not soluble
4,MGSDKIHHHHHHMQFGAKPLFENVSVKFGNGNRYGLIGANGCGKSTFMKILGNDLEPSAGQVMLEPNVRLGKLRQDQFAYEDFSVIDTVIMGHEELWAVKAERDRIYSLPEMSEADGMAVAELEVQFAEFDGYTAESRAGELLLGLGIPLEQHFGPMSAVAPGWKLRVLLAQALFSDPDVLLLDEPTNHLDINTIRWLEGVLTARNSTMIIISHDRHFLNSVCTHMADLDYGELRLFPGNYDEYMTAAEQARERLLSDNAKKKAQIAELQSFVSRFSANASKAKQATSRARQIDKIQLEEVKPSSRVSPFIRFEQYKKLHRQAVTVENISKGYDGKPLFKGLSLQVEAGERVAIIGPNGIGKTTLLRCLVGDLPVDGGEVKWTDSADVGYFAQDHADDFADDMSLFDWMAQWTQGGEQLVRGTLGRMLFSNDEIKKSVKVISGGEQGRMLFGRLILKRPNVLVMDEPTNHLDMESIEALNLALDNYPGTLIFVSHDREFVSSLATRIIELGENGVTDFSGSYDDYLRSQGVIV,not soluble
5,MGSDKIHHHHHHMQGIAFQDAYPDDLSHCYGCGRNNEQGHQLKSYWRGEQTIAHFMPKPFHTAIPGFVYGGLIASLIDCHGTGSASAAAQRALEQAGEQLDEPPRFVTAALNIDYLAPTPMGVELELVGEIKEVKPRKVVVEIALSADGKLCARGHMVAVKMPETMAATSA,not soluble
6,MGSDKIHHHHHHMQGTQQSLPLAVVRGQAMTEMPQDLFIPPEALEVFLESFEGPLDLLLYLIRKQKLDVVDLPISQITAQYLEYIAMLTQARIELASDYLVMAATLAEIKSRLLLPRMVAEDEVEEDPRAQLIRQLKAYEVIKEASQKIDDLPRLERDVFQATAAPSPNIKPLVIPPDVSLFEIARAFGDVLKRIDAYEDHHVKREQLSTRERMSQILAMLNSEDFTPFERLFSVEEGRAGVVVTFLALMELVKELLVELYQTEPFSTIYVKAY,not soluble
7,MGSDKIHHHHHHMQIAVSGGKGGTGKSTVAINLAVELAKKFKLVLADLDVEAPNDHLLLGVELQNEREVHQFMPKFNYSKCIKCRKCAEACEEHAIVTLRDGTPFLMPTLCSGCRACEIVCPVPGAIEEGSRLIGHTYETLTPYGFTLVTGKLREGEERSMPLVVAAKRRAKELKWDLLIVDTAAGTGNTVSKAIEGSQLLIAVTEPTPLGIHDTELILKLGELMRIETWIVINRSDLGDVKEVYRRAKKYNAEVIAEIPYSENIVKTYVAGKPIVTTDYPEAGIFREIAEKVYEFLR,not soluble
8,MGSDKIHHHHHHMQIISHRGYWLHKPERNLTQAFHRSFDFGFGTETDVRDVAGQLVISHDMPVGGELTLDGLLDIMAGRNLPLAINVKADGMALALKKTFARYGHTNWFVFDMAVPDMRSYLIEEVITYSRLSDVEPSPAWLERATGVWLDGFDSEWFSNQVIGDLLSQDKQVCVVSPELHGRDCMALWQQLLEFRSENRLTLCTDTPVDAAIFFK,not soluble
9,MGSDKIHHHHHHMQLLKELCSIHAPSGNEEPLKDFILEYIRSNAGSWSYQPVIYADNDLQDCIVLVFGNPRTAVFAHMDSIGFTVSYNNHLHPIGSPSAKEGYRLVGKDSNGDIEGVLKIVDEEWMLETDRLIDRGTEVTFKPDFREEGDFILTPYLDDRLGVWTALELAKTLEHGIIAFTCWEEHGGGSVAYLARWIYETFHVKQSLICDITWVTEGVEAGKGVAISMRDRMIPRKKYVNRIIELARQTDIPFQLEVEGAGASDGRELQLSPYPWDWCFIGAPEKDAHTPNECVHKKDIESMVGLYKYLMEKL,not soluble
10,MGSDKIHHHHHHMQLSSRPSSLVLDHHQNKFLTPWSDPADPHILFPIQPLEQLLVQLGWPDPQAWLIHWQKRGGISLKRPFWHPSTRTDWIWGLGLPLLTLVEGCLGKSDRSLLGITGLPGCGKTSLGCWLEAAAGELGWPIKVISLDDFYWPFPQLDRSMSGNPWRVPRALPGSHDLDLLASVLDTWQSTGHLKAPMFDKALRHGRGDRDGWHLSDPKVLVIEGWILGCLPCKFAEAGQFSDQLVPPLNKLEHDYRLVVQEALNGYVPIWDRLDTLWHLKAIDPSSTRIWKANQESLMQLNRGVCLDQESFEGFVRMILASIPLTCLDGIEADVVATLTPARQLMWVGQRGYQDSSSSDSCIG,not soluble
11,MGSDKIHHHHHHMQMDLETAVMKKKESLNETDKAIVSYLLKYPEDASKLSLMELAQKLYVSKSAIFRLSKKLGLSGFSELKFELTELTNKKVQNKKYVQELDFNNNLHQIIDETFKYFKDANFHDLFIDLDNAETIYIYSTGWQQQIIAEYLAHSFFLIGKKAIILPSAKDEVAMLGRSIEENDMLFVISFGGFNKTIIEELKKIDTVTDKLKFVSLTSWQPGKIASLSDYSFFFKTTPFQISNQNAVTFSSAYVLIDLIINEYGKHCNSKK,not soluble
12,MGSDKIHHHHHHMQRIAENYDALPRQLKNVATYIEQHRSSVMVDRTSDIAASCGVHPSAVVRFAQRFGFSGFSDLQAVFRQAYTGQGSSSPSYQQRIRKLIDEKPGALSGGSVAREFIAASRGGLEELEAGLDDKQFDAAVKMLQQADNIYVIGVRRSFPVASYIVYALQHTPKRVHLVSGFGGMYREQIRSVKKGDVVIAISFAPYGKETQYCLRVAHHHQARTLVITDSQLSPLARYATTQLYVKEGSAFAFRSLTSTICLCQALFIALAYKLELNVEESKDTGGYDD,not soluble
13,MGSDKIHHHHHHMQYNFKVEAFEGPLDLLLHLIHRYEIDIYNIPVAEITEQYLSYVHTMKELQLDVASEYLVMAATLLQIKSKMLLPKHEEDVLDNGDDFIDDPRQELMERLIEYKKYKQVATELKEREQERAQLYTRPPIDFTSLQQEEETSLPLDVTLYDMLAAFQKLMRRKKAKKPVTTRITRQEIPIEQRMTDILKQLEIQGGRQSFYDLFVDDEREIMVVTFLAVLELMKNQQIVIEQEHNFDEIFVSSYTKSA,not soluble
14,MGSDKIHHHHHHMRADLTPFLNDRLDWNLLRTYLVIMQERSVSRAAARLHVTQPAVSQALRRLEDTLERKLIERRGAHFAPTPAGEAVYRIASDIYGGVSRLETELDDSTADLTGSIRLLTVSRIESPVYDAFLADFHRAYPRIDLQIEVMRSSDILSSLLQKTATAGLGLCRTPHDKLEMRCFLRQRYAIYCGRHHRLFGQTQLRMEDLLAENFVSFTSDQIGDSLSPLTVFRDQKGFTGRIVASSPSLEEVRRLIFAGYGIGCLPEHIVRDDIAQQRLWRLPPDDGLVDVDVFLLWHRDRKMNAAEHAFLDAMERCMQQHSLAERLGM,not soluble
